Measurements as given in the nanobody polyreactivity screen of Harvey et al. (2022).

Test: yeast display, Sf9 membrane polyspecificity reagent, FACS + sequencing; frameworks hold sequencing errors
Method in brief: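 Nanobodies from a synthetic yeast display library (Saccharomyces cerevisiae BJ5465), induced 36–48 hours with galactose, were stained 1 hour at 4 °C with 10% biotinylated, detergent-solubilized Sf9 membrane reagent, enriched on streptavidin microbeads, then FACS-sorted. Anti-HA (expression) and streptavidin (reagent binding) fluorescence set low and high (top ~1%) gates. Polyreactivity labels come from the gate of origin. Genes were colony-PCR amplified, MiSeq 2 × 250 sequenced and filtered by CDR length.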

Row | Sequence | polyreactivity (PSR sort gate)
1 | QVQLVESGGGLVQAGGSLRLSCAASGGIFKAYAMGWYRQAPGKERELVAVITIGGRTTYADSVKGRFTISRDNAKNTVYLQMNSLKPEDTAVYYCAKTNYNWLSTAEHDYWGQGTQVTVSS | low polyreactivity
2 | QVQLVESGGGLVQAGGSLRLSCAASGGIFLDYVMGWYRPATGKQRELVAAISGSGGTNYADSVKGRFTISRDNAKNTVYLQMNSLKPEDTAVYYCAAVGYYSYSYYTKVGVDYWGQGTQVTVSS | high polyreactivity
3 | QVQLVESGGGLVQAGGSLRLSCAASGGIFLVYTMGWYRQAPGKEREMVAAITSGGSTKYADSVKGRFTISRDNAKNTVYFQMNSLKPEDTAVYYCAAGVQYARYQARYFYWGQGTPVTVSS | high polyreactivity
4 | QVQLVESGGGLVQAGGSLRLSCAASGGIFNRYAMGWYRPAPGKERELVAGITRSGGSTSYADSVKGRFTISRDNAKNTVYLQMNSLKPEDTAVYYCNKVAYYASSSYYRFGAYGYWGQGTQVTVSS | high polyreactivity
5 | QVQLVESGGGLVQAGGSLRLSCAASGGIFPHYVMGWYRQAPGKERELVAAITWSGGRTYYADSVKGRFTISRDNAKNTVYLQMNSMKPEDTAVYYCAADPFYLTKSGGWGDYWGQGTQVTVSS | low polyreactivity
6 | QVQLVESGGGLVQAGGSLRLSCAASGGIFPKNAMGWYRQAPGKERELVAAINWSGGTTNYADSVKGRFTISRDNAKNTVYLQMNSLKPEDTAVYYCAKQGLWIFVVVEMDYWGQGTQVNVSS | low polyreactivity
7 | QVQLVESGGGLVQAGGSLRLSCAASGGIFPQYAMGWYRQAPGKERQLVAAISRRGGRTYYADSVKGRFTISRDNAKNTDYLQMNSLKPEDTAVYYCNAGGSSGYDYWGQGTQVTVSS | high polyreactivity
8 | QVQLVESGGGLVQAGGSLRLSCAASGGIFPYYAMGWYRQAPGKERELVADISSGGSTYYADSVKGRFTISRDNAKNTVYLQMNSLKPEDTAVYYCAADAGQYFTYSGDDNHDYWGQGTQVTVSS | low polyreactivity
9 | QVQLVESGGGLVQAGGSLRLSCAASGGIFRHNAMGWYRQAPGKERELVAAISRSGGNTYYADSVKGRFTISRDNAKNTVYLQMNSLKPEDTAVYYCNKIEYDSWADHVYWGQGTQVTVSS | low polyreactivity
10 | QVQLVESGGGLVQAGGSLRLSCAASGGIFRYAMGWYRQAPGKEREFVAAITTRGGSTYYADSVKARFTISRDNAKNTVYLQMNSLKPEDTAVYYCAARRYSGRNKYDYWGQGTQLTVSS | high polyreactivity
11 | QVQLVESGGGLVQAGGSLRLSCAASGGIFRYYALGWYRPAPGKERELVAASSRSGDSTYYADSVKGRFTISRDNAKNTVYLQMNSLKPEDTAVYYCAKDNDDVHLVHLDYNSDRYGYWGPGTQVTVSS | high polyreactivity
12 | QVQLVESGGGLVQAGGSLRLSCAASGGIFRYYAMGWYRQAPGKERELVATITSGSITNYADSVKGRFTISRDNAKNTVYLQMNSLKPEDTAVYYCAALGAFPSLEFDYWGQGTQVTVSS | low polyreactivity
13 | QVQLVESGGGLVQAGGSLRLSCAASGGIFSGNDMGWYRQAPGKERELVATITYSGGTTYYADSVKGRFTISRDNAKNTVYLQMNSLKPEDTAVYYCAADEYGPHTFSPEYDSWGQGTQVTVSS | low polyreactivity
14 | QVQLVESGGGLVQAGGSLRLSCAASGGIFSGYAMGWYRQAPGKARELVAAISRRGTRTYYADSVKGRFTISRDNAKNTVDLQKNSLTPEDTAVYYCNAELDSLGTYDYWGQGTQVTVSS | high polyreactivity
15 | QVQLVESGGGLVQAGGSLRLSCAASGGIFSPNAMGWYRQAPGKERELVAAISSNGGSTNYADSVKGRFTISRDHAKNTVYLQMNSLKPEDTAVYYCAGLQKRRSYWRPFYWGQGTQVTVSS | low polyreactivity
16 | QVQLVESGGGLVQAGGSLRLSCAASGGIFSPNAMGWYRQAPGKERELVAAISSNGGSTNYADSVKGRFTISRDNAKNTVYLQMNSLKPEDTAVFYCAGLQLRRSYRRPFYWGQGTQVTVSS | low polyreactivity
17 | QVQLVESGGGLVQAGGSLRLSCAASGGIFSQYAMGWYRQAPGKERELVAAINSGVGTNYADSVKGRFTISRDNAKNTVFLQMNSLKPEDTAVYYCAATDDRLWTFDVASYRNDYWGQGTQVTVSS | low polyreactivity
18 | QVQLVESGGGLVQAGGSLRLSCAASGGIFSVYAMGWYRQPPGKERELVASITVSGGSTSYADSVKGRFTISRDTAKNTVYLQMNSLKPEDTAVYYCNTDFGQAHTLSWYEDMDYWGQGTQVTVSS | low polyreactivity
19 | QVQLVESGGGLVQAGGSLRLSCAASGGIFSYNALGWYRQAPGKERELVAAISYSSTRTYYADSVKGRFTISRDNAKKTVYLQMNSLKREDTAVYYCAARLSRTRHTSDYWGQGTQVTVSS | high polyreactivity
20 | QVQLVESGGGLVQAGGSLRLSCAASGGIFTNNAMGWYRQAPGKERELVAAITGSGASTYYADSVKGRFTISRDNAKNTVYLQMNSLKPEDTAVYYCAALSKYYAPLSRYDYWGQGTQVTVSS | high polyreactivity
21 | QVQLVESGGGLVQAGGSLRLSCAASGGIFTYNAMGWYIQAPGKERELVAAITWNGGRTYYADSVKGRFTISRDTAKNTVYLQMNSLKPEDTAVYYCAARSPVKRQSRKQYYYWGQGTQVTVSS | high polyreactivity
22 | QVQLVESGGGLVQAGGSLRLSCAASGGIFVLNAMGWYRQAPGKERELVATITSSGGSTYYADSVKGRFTISRDNAKNTVYLQMNSLKPEDTAVYYCNADWYLWSTFAQGYGYWGQGTQVTVSS | high polyreactivity

Row | Sequence | polyreactivity (PSR sort gate)
23 | QVQLVESGGGLVQAGGSLRLSCAASGGIFWAYAMGWYRQAPGKERELVAAITTLGTSTYYADSVKGRFTISRDNAKNTVYLQMNSLKPEDTGVYYCAAVDPYSYSFDYWGQGTQVTVSS | high polyreactivity
24 | QVQLVESGGGLVQAGGSLRLSCAASGGIFWYYTRGWYRQAPGKERELVATISSGGRTYYADSVKGRFTISRDNAKNTVYLQMNSLKPEDTAVYYCAKSYRRRQGYSYWGQGTQVTVSS | high polyreactivity
25 | QVQLVESGGGLVQAGGSLRLSCAASGGIFYHNAMGWYRQAPGKERELVAAISGRGGRTYYADSVKGRFTISRDNAKNTVYLQMNSLKPEDTAVYYCDADQYKDFDYWGQGTQVTVSS | low polyreactivity
26 | QVQLVESGGGLVQAGGSLRLSCAASGGIFYPNVMGWYRQAPGKEREFVAAITSSSGSTYADSVKGRFTISRDNAKNTVYLQMNSLKPEDTAVYYCAAVENWWGIWVRYDYWGQGTQVTVSS | low polyreactivity
27 | QVQLVESGGGLVQAGGSLRLSCAASGGIFYSYAMGWYRQAPGKERELVAAITWIGGSTYYADSVKGRFTISRDNAKNTVYLQMNSLKPEDTAVYYCAAEILWGGYDYWGQGTQVTVSS | low polyreactivity
28 | QVQLVESGGGLVQAGGSLRLSCAASGGIFYYYAMGWYRQAPGKERELVAAISWSGGSTYYADSVKGRFTISRDNAKNTVYLQMNSLKPEDPAVYYCAPYSDFHYAQLEYDYWGQGTQVTVSS | low polyreactivity
29 | QVQLVESGGGLVQAGGSLRLSCAASGGIIDWYVMGWYRQAPGKERELVAAISYNGGATYYADSVKGRFTISRDNAKNTVYLQMNSLKPEDTAVYYCAAGVTWPYRYVWYVYWGQGTQVTVSS | low polyreactivity
30 | QVQLVESGGGLVQAGGSLRLSCAASGGIIFYYAMGWYRQAPGKERALVAAISYSGGSTYYADSVKGRFTISRDNAKNTVYLQMNSLKPEDTAVYYCAARTHYFPWPWYVWDYDSWGQGTQVTVSS | low polyreactivity
31 | QVQLVESGGGLVQAGGSLRLSCAASGGILGVNAMGWYRQAPGKERELVAAISGRGGRTYYADSVKGRSTISRDNAKNTVYLQLNSLKPEDTAVYYCAVEFYSVARFPLWSYYWGQGTQVTVSS | high polyreactivity
32 | QVQLVESGGGLVQAGGSLRLSCAASGGILGWSAMGWSRQAPGKERELVAAIRDSGGSTYYADSVKGRFTIARDNAKKTVYLQMNSLKPEDTAVYYCAAYYIASRSTRYYYWGQGTQVTVSS | high polyreactivity
33 | QVQLVESGGGLVQAGGSLRLSCAASGGILNYYAMGWYRQAPGKERELVAAITGIGGSTSYADSVKGRFTISRDNAKNTVYLQMNSLKPEDTAVYYCAAEATSSYYVPDYDYWGQGTQVTVSS | low polyreactivity
34 | QVQLVESGGGLVQAGGSLRLSCAASGGILVFYAMGWYRQAPGKERELVAAITKRGTSTYYADSVKGRFTISRDIEKNTVYLQMNSLKPEDTAVYYCAAESIPYYRYDYWGQGSQVTVSS | low polyreactivity
35 | QVQLVESGGGLVQAGGSLRLSCAASGGILYYYAMGWYRQAPGKEREMVAAISSGGRTNYADSVKGRFTISRDNAMNTVYLQMNSLNPEDTAVYYCAARGATGFRRYGVTHYYYWGQGTQVNVSS | high polyreactivity
36 | QVQLVESGGGLVQAGGSLRLSCAASGGISTAYTMGWYRQEPGKERELVADITRSGGRTYYADSVKGRFTISRDTAKNNVYLQMNSLKPEDTAVYYCARTYYYRFNYWGQGTQVTVSS | high polyreactivity
37 | QVQLVESGGGLVQAGGSLRLSCAASGGIVSVYAMGWYRQAPGQERELVASITVSGGSTSYADSVKGRFTISRDNAKNTVYLQMNSLIPEDTAVYYCNTDFGQAHTLSWYEDMDYWGQGTQVTVSS | low polyreactivity
38 | QVQLVESGGGLVQAGGSLRLSCAASGGLFIGYAMGWYRQAPGKERELVAAISYSGGSTYYADSVKGRFTISRDNAKNTVYLQMNSLKPEDTAVYYCAAQVDRKYRWFNSWGQGTQVTVSS | high polyreactivity
39 | QVQLVESGGGLVQAGGSLRLSCAASGGMGWYRQAPGKERELVATISSVGSTNYADSVKGRFTISRDNAKNTVYLQMNSLKPEDTAVYYCAADYGSDYTKGDYWGQGTQVTVSS | low polyreactivity
40 | QVQLVESGGGLVQAGGSLRLSCAASGGSFYPYAMGWSRQAPGKERELLAAISWSGDITYYADSVKGRFTISRDNANNTVYLQMNSLKPEDTAVYYCAAGRVVDKDPSYFREGDYWGQGTQVTVSS | low polyreactivity
41 | QVQLVESGGGLVQAGGSLRLSCAASGGTFAGYAMGWYRQAPGKERELVAAISWSSGRTYYADSVKGRFTISRDIAKNSVYLQMNSLKPEETAVYDCTVLRYRGYDYWGQGTQVTVSS | high polyreactivity
42 | QVQLVESGGGLVQAGGSLRLSCAASGGTFAIYAMGWYRQAPGKYRELVASINSGGSTNNADSVKGRFTISRDNAKNTVYFQLNLLKPEDTAVYYCNRGYLGYFRYDYWGQGTQVTVSS | high polyreactivity
43 | QVQLVESGGGLVQAGGSLRLSCAASGGTFATYAMGWYRQAPGKERELVAAISWSGGSTYYAVSVKGRFTISRDNAKNTVYLQMNSLKPEDTAVYYCAAASRAPSGLYYYWGQGTQVTVSS | high polyreactivity
